Results reported in the nanobody polyreactivity screen of Harvey et al. (2022).

test: yeast display, Sf9 membrane polyspecificity reagent, FACS + sequencing; frameworks hold sequencing errors
How it was run: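 Nanobodies from a synthetic yeast display library (Saccharomyces cerevisiae BJ5465), induced 36–48 hours with galactose, were stained 1 hour at 4 °C with 10% biotinylated, detergent-solubilized Sf9 membrane reagent, enriched on streptavidin microbeads, then FACS-sorted. Anti-HA (expression) and streptavidin (reagent binding) fluorescence set low and high (top ~1%) gates. Polyreactivity labels come from the gate of origin. Genes were colony-PCR amplified, MiSeq 2 × 250 sequenced and filtered by CDR length.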

Sequence	polyreactivity (PSR sort gate)
QVQLVESGGGLVQAGGSLRLSCAASGRTFSENAMGWYRQARGKERELVAAISGSGGRTYYADSVKGRFTISRDNAKNTVYLQMNSLKPEDTAVYYCAKVTRYGSTYDYWGQGTQVTVSS	high polyreactivity
QVQLVESGGCLVQAGGSLRLSCASSGRTFRRYTMGWYRQAPGKETELVAAITSGGRTNYADSVKGRFTISRDNAKNTVYLQMNSLKPEDTAVYYCNAQNEIWRVTFSPYDRWGYDYWGQGTQVTVSS	low polyreactivity
QVQLVESGGGLVQAGGSLRLSCAASGRTFYDNTMGWYRQAPGKERELVAAITRNGGSTYYADSVKGRFTISRDNAKNTVYLQMNTLKPEDTAVYYCNAELGILSGVAEGPTFREYDYWGQGTQVNVSS	low polyreactivity
QVQLVESGGGLDQAGGSLRLICAASGSTFGGYVMGWYRQAPGKERELVAAISRSGASTYYADSVKGRFTISRDNAKNTVYLQMNSLKPEDTAVYYCAAYQARGMDYWGQGTQVTVSS	high polyreactivity
QVQLVESGGGLVQAGGSLRLSCAASGFTFRGYAMGWYRQAPGKERELVASITYRGGSTYYADSVKGRFTISRDNAKNTVYLQMNSLKPEDTAVSYCNAGFGGRRRQDAFIGTSIYDYWGQCTQVTVSS	low polyreactivity
QVHLVESGGGLVQAGGSLRLSCAASGSIVFLYAMGWYRQAPGKEWELVAAISGRGTSTDYADSVKGRFTISRDNAKNTVYLQLTSLKPEDTAVYFCAAKYNRPYQGWRVNHWGQGTQVTVSS	high polyreactivity
QVQLVESGGGLVQAGGSLRLSCAASGRIFPDYVMGWYRQAPGKEREFVAIISYSGVRTYYADSVKGRFTISRDNAKNTVYLQMNSLKPEDTAVYYCAADFKQKGHRTRTTYWGQGTQVTVSS	high polyreactivity
QVQHVESGGGLVQAGGSLRLSCAASGYTFTINTMGWYRQAPGKERELVAAITWRGGSTYYADSVKGRFTISRDNAKNTVYLQMNSLKPEDSAVYYCNKDYYITTTTFDYWGQGTQVTVSS	low polyreactivity
QVQLVESGGGLVQAGGSLRLSCAASGSTFSSYAMGWYRQAPGKEREFDAAINTDGGSTYYADSVKGRFTISRDNAKNTVYLQMNSLKPEDTAVYYCAARYYWPWYSSYDYWGQGTQVTVSS	low polyreactivity
QVQLVESGGGLVQAGGILRLSCAASGRTFGWNAMGWYRQAPGKERELVAAISWSGTNTYYADSVKGRFTISRDNAKNTVYLQMNCLNPEDTAVYYCAARDWTGSWNGYWYWEYNYWGQGTQVTVSS	low polyreactivity
QVQLVESGGGLVQAGGSLRLSCAASGRIFPTYAMGWYRQAPGKERELVATITRRGGSTYYADSVKGRFTISRDNAKNTVYLQMNSLKPEDTAVYYCAARLWGTIRYDYWGQGTQVTVSS	high polyreactivity
QVQHEESGGGLVQAGGSLRLSCAASGSIFLWNAMGSYRQAPGKERELVASIGDSTYYADSVKGRFTISRDNAKNTVYLQMNSLKPEDTAVYYCKAEVLNYLVFGYQLCYDYWGQGTQVTVSS	low polyreactivity
QVQLVESGGGLVQAGGSLRLSCAASGSTLVGNTMGCYRQSPGKERELVAAITGVGSTNYADSVKGRFTISRDNAKNTVYLQMNSLKPEDTAVYYCAAQYSYTYIVSYLYDMDYWGQGTQVTVSS	low polyreactivity
QVQLVESGGGLVQAGGSLRLSCAASGITFRRSAMGWYRQAPGKEREVVAAISIRGGRTYYADAVKGRFTISRDNAKNTVYLQMNSLIPEDTAVYYCAADGVYALDVESDYWGLGTQVTVSS	high polyreactivity
QVQLVESGGGLVQAGGSLRLSCAASGFTFDAYTMGWYRQAPGKERELVAAINWSGDTTYYADSVKGRFTISRDNAKNTVYLQMNSLKPEDTAVYYCAAVWWIYGVWFDYWGQGTQVTVSS	high polyreactivity
QVQLVESGGGLVQAGGSLRLSCAASGSTFLTNVMGWYRQAPGKEREFVAAITANGGRTYYADSVKGRFTISRDYAKMTVYLQMNSLKPEDTAVYYAVETAWSYNSNYWFDYWGEGTQVTVSS	high polyreactivity
QVQLVESGGGLVQAGGSLRLICAASGYIFRYYVMGWYRQAPGKERELVAAITGIDGSTYYADSVKGRFTISRDNAKNTVYLQMNSLKPEDTAVYYCAAVIGDSSYTFYYDMDYWGQGTQVTVSS	low polyreactivity
QVQLVESGGGLVQAGGSLRLSCAASGFIFGVYAMRWYRQAPGKERELVAAISYRTGTTYYADSVKGRFTISRDNAKNTVYLQMNSLKTEDTAVYYCNAAVRGVGELDYWGQGTQVTVSS	high polyreactivity
QVQLVESGGGLVQAGGSLRLSCAASGNTFRFYAMGWYRQAPGKERELVADITRGGSTNYADSVKGRFTISRDNAKNTVYLQMNSLKPEDTAVYYCAARPWYYTSSFYYGRYDYWGQGTQVTVSS	high polyreactivity
HVQLVESGGGLVQAGGSLRISCAASGRIFSTYTMGWYRQAPGKERELVAAIRANCGSTYYADSVKGRFTISRDNAKNTVYLQMNSLKPEDTAVYYCAALYRRYPYHYDSWGQGTQVTVSS	high polyreactivity
QVQLVESGGGLVQAGGILRLSCAASGRILPSNAMGWYRQAPGKERELVAGITSGGSTDYADSVKGRFTISRDNAKNTVYLQMNSLKQEDTAVYYCNKPFPYYPDGPNGYDYWGLGTQVTVSS	low polyreactivity
QVQLVESGGRLVQAGGSLRLLCAASGSTFRYYAMGWYRPAPGKERELLAAISRSGGRTYYADSVKGRFTMSRDNAKTTVYLQMKSLKPEDTAVYDCATRGDGSSWGDYDYWGQGTQVTVSS	high polyreactivity

Sequence	polyreactivity (PSR sort gate)
QVQLVESGRGLVQAGGSLRLRCAASGSIFKSNVMGWYRPAPGKERELVAVITRSGGSTYYADSEKGRFTISRDNAKNTVYLQMNSLKPEDTAVYYCNRAAGYWAGYYHWGQGTQVTVSS	high polyreactivity
QVQLVESGGGIVQAGGSLRLSCAASGSIFTVNALGWYRQAPGKERELVAAITFGGGRTYYADSVKGRFTISRDNAKNTVYLQMNSLKPEDTAVYYCAVSRKGLGSVEYWGQGTQVTVSS	low polyreactivity
QVQLVESGGGLVQAGGSLRLSCAASGFILSWYAMGWYRQAPGKERELVAGISRRGGSTYYADSVTGRFTISRDNAKNTVYLQMNSLKPEDTAVYYCNALYDDWSVSTGDYWGQGTQVTVSS	high polyreactivity
QVQLVESGGGLVQAGGSLRISCAASGSTFDDNAMGWYRQAPGKERELVASITYRGGSTYYADSVKGRFTISRDNAKNTVYLQMNSLKPEDTAVYYCAKGHYFKYDYWGQGTQVTVSS	low polyreactivity
QVQLVESGGGLVQAGGSLRLSCAASGFTFWLYAMGWYRQATGKERELVAAIDWDGGTYYADSVKGRFTISRDNAKNTVYLQMNSLKPEDTAVYYCAARYRYYYTRYDYWGQGTQVTVSS	high polyreactivity
QVQLVESGGGLVQAGGSLRLSCAASGSIFQYYVMGWYRQAPGKERELVAAIRRSGTTYYADSVKGRFTISRDNAMITVYLQMNSLKPEVTAFYYCKKVRCQEPSNYDYWGQGTQVTVSS	low polyreactivity
QVQLVESGGGLVQAGGSLRLSCAASGSIFPRNAMGWYRQAPGKERELVAAIRKSGGSTYYADSVKGRFTISRDNAKNTVYLQMNSLKPEDTAVYYCAKPYSVCCWQSPIYNYWGQGTQVTVSS	low polyreactivity
QVQLVESGGGLVQAGGSLRLSCAASGIILKRNAMGWYRQAPGKERELVAAITSGGTTSYADSVKGRFTISRDNAKNTVYLQLNSLKPEDTAVYYCATRKPVSVYRFAPVYKNSNYWGQGTQVTVSS	high polyreactivity
QVQLVESGGGLVQAGGSLRLSCAASGRTFNRYAMGWYRQAPGKERELVAAINWSGGSTYYADSVKGRFTISRDNAKNTVYLQMNSLKPEDTAVYYCNAGLGKFPVKGGRRYRLDYWGQGTQVTVSS	low polyreactivity
QVQLVESGGGLVQAGGSLRLSCAASGRTFSYYAMGWYRQAPGKERELVASIRKSGASTYYADSVKGRFTISRDNAKNTVYLQMNSLKPEDTAVYYCAARGSRKPDWGLGYWGQGTQVTVSS	high polyreactivity
QVQLVESGGGLVQAGGSLRLSCAASGIIFPIYAMGWYRQAPGPERELVAAIDINGGRTYYADSVKGRFTISRDNAKNTVYLPMNSLKPEDTAVYYCNAEGGSYARLYGNYEYWGQGTQVTVSS	low polyreactivity
QVQLVESGGGLVQAGGSLRLSCAASGRTFFPYAMGWYRQAPGKERELVAAISFRGGRTYYADSVKGRFTISRDNAKNTVYLQMNSLKPEDTAVYYCNKLGTRVYEMDYWGQGTQVTVSS	high polyreactivity
QVQLVESGGGLVQAGGSLRLSCAASGRTFGYYAMGWYRQAPGKERELVAAISWRGTSTYYADSVKGRFTISRDNAKNTVYLQMNSLKPEDTAVYYCNRYTTRYYPGGDYWGQGTQVTVSS	high polyreactivity
QVQLVESGGGLVQAGGSLRLSCAASGSIFPFYAMGWYRQAPGKERELVAAISDRGGSTYYADSVKGRFTISRDNAKNTVYLQMNSLKPEDTAVYYGAKGGEVSQGYTDEYDYWGQGTQVTVSS	low polyreactivity
QVQLVESGGGIVQAGGSLRLSCAASGRIISGYVMGWYRQAPGKERELVAAITRSGGSTNYADSVKGRFTISRDNAKNTVYLQMNSLKPEDTAVYYCNAVGRYYRVANGNYDYWGQGTQVTVSS	high polyreactivity
QVQLVESGGGLVQAGGSLRLSCAASGSIFRAYAMGGYRQAPGKERELVAAINWTDGSTYYAASVKGRFTISRDYAKNTVYLQMNSLKPEDTAVYYCAKDSMARHNYWGQGTQVTVSS	low polyreactivity
QVQLVESGGGLVQAVGSLRLSCAASGYFFSSNAMGWYSQSPGKERELVAAITASGGGTYYADSVKGRFTISRDNAQNTVYIQMKSLKPEDTAVYYCAADFNDHYYWYGQDFDYWGQGTQVTVSS	low polyreactivity
QVQLVESGGGLVQAVCSLRLSCAASGIIFVYYVMGWYRQAPGKERELVASIDGSGGSTNYADSVKGRFTISRDNAKNTVYLQMNSLKPEDTAVYYCAASGRYDYDYWGQGTQVTVSS	low polyreactivity
QVQLVESGGGLVQAGGSLRLSCAASGFTIYRYAMGWYRQAPGKERELVAAITSRGGSTYYADSVKGRFTISRDNAKNTVYLQMNSLKPEDTAVYYCAAAGYYPAYDYWGQGTQVTVSS	high polyreactivity
QFQLVESGRGLVQAGGSLRLSCAASGRTFSAYAIGWNSQAPVKQRELVAAITRGGSTNYADSVKGRFTISRDNAMNTLYLQMNRLKPEDTAVYYCAARRSSRKDFGYWGQGTQVTVSS	high polyreactivity
QGQLVESWGGLVQAGGSLRLSSDASGRTFSLYAMGWYRQAPGKQTELVASITDSTGGSTYYADSVKGRFTISRDNAKNTVYLQMNSLKPADTAVYYSAAQDYQYSDYQWWFGFWGQGTQVTVSS	low polyreactivity
